Data as given in US20210388065A1 (published 2021).

Legend:
[1] = biological target: T1, SARS-CoV-2 Spike protein (Receptor Binding Domain, RBD) (UniProt P0DTC2 331-524); assay: ELISA
[2] = biological target: T1, SARS-CoV-2 Spike protein (Receptor …); assay: ELISA; remark: listed apart in the source

B1: 414-1 antibody (antibody, V domains shown)
VH: QVQLVQSGAEVKKPGASVKVSCKASGYTFTSYYMHWVRQAPGQGLEWMGIINPSGGSTSYAQKFQGRVTMTRDTSTSTVYMELSSLRSEDTAVYYCARGALGCSSTSCYPNNFDYWGQGTLVTVSS
VL: not shown
With B1 the EC50 [1] was 1.26 nM and the IC50 [2] was 6.68 nM.

B2: 414-3-2 antibody (antibody, V domains shown)
VH: QVQLVESGGGVVQPGRSLRLSCAASGFTFSSYAMHWVRQAPGKGLEWVALISYDGSNKYYADSVKGRFTISRDNSKNTLYLQMNSLRAEDTAVYYCARDGGGWFDPWGQGTLVTVSS
VL: QTVVTQPASVSGSPGQSITISCTGTSSDVGGYNYVSWYQQHPGKAPKLMIYDVSKRPSGVSNRFSGSKSGNTASLTISGLQAEDEADYYCSSYTSSSPWVFGGGTELTVL
B2 showed an EC50 [1] of 6.66 nM.

B3: 105-9 antibody (antibody, V domains shown)
VH: EVQLVESGGGLVKPGRSLRLSCTASGFTFGDYAMSWFRQAPGKGLEWVGFIRSKAYGWTTQYAASVKGRFTISRDDSKSIAYLQMKSLNSEDTAVYYCTRDPWGTTYFDYWGQGTLVTVSS
VL: EIVMTQSPATLSVSPGERATLSCRASQSVSSNLAWYQQKPGQGPRLLIYGASTRATGVPARFSGSGSGTDFTLTISSLQSEDFAIYYCQHYNNWFTFGQGTKVEIK
Binder B3 has an EC50 [1] of 15.1 nM and an IC50 [2] of 25.2 nM.

B4: 105-38 antibody (antibody, V domains shown)
VH: EVQLVESGGGLVQPGGSLRLSCAASGFTFSSYWMHWVRQAPGKGLVWVSRINSDGSSTSYADSVKGRFTISRDNAKNTLYLQMNSLRAEDTAVYYCARVQWLRGEFDYWGQGTLVTVSS
VL: DVVLTQPHSVSESPGKTVTISCTGSSGSIASNYVQWYQQRPGSAPTTVIYEDNQRPSGVPDRFSGSIDSSSNSASLTISGLKTEDEADYYCQSYDSSTDVVFGGGTELTVL
B4 showed an EC50 [1] of 0.425 nM and an IC50 [2] of 0.598 nM.

B5: 105-43 antibody (antibody, V domains shown)
VH: EVQLVESGGGLVQPGGSLRLSCAASGFTFSSYDMHWVRQATGKGLEWISAIGTTGDIYYADSVKGRFTISRENAENSLYLQMNSLRAGDTAVYYCARYRGAFDVWGQGTMVTVSS
VL: EIVMTQSPVTLSLSPGERATLSCRASQSVGTYLAWYQQKPGQAPRLLIYDASNRATRIPARFSGSGSGTDFTLTISSLEPEDFAVYYCQQGSNWPLTFGGGTKVEIK
In the case of B5, the EC50 [1] is reported as 12.1 nM and the IC50 [2] is reported as 59 nM.
